Laboratory results from patent US20150273076A1, “SP1 POLYPEPTIDES, MODIFIED SP1 POLYPEPTIDES AND USES THEREOF” (Fulcrum SP Ltd., priority 2006, published 2015).
Changes are numbered by the printed parent chain. ≈ marks a conversion by molar mass, not a printed value. Entries after “also recorded” stand apart in the source; their conditions may differ.

B1: Cys2: SP1 variant with cysteine residue inserted in position 2, SEQ ID NO:3 (protein)
chain: MCATRTPKLVKHTLLTRFKDEITREQIDNYINDYTNLLDLIPSMKSFNWGTDLGMESAELNRGYTHAFESTFESKSGLQEYLDSAALAAFAEGFLPTLSQRLVIDYFLY
modifications: Sp1 mutant variant Cys in position 2
B2: CRGD2: SP1 fusion protein with N-terminal tumor specific peptide CRGD, SEQ ID NO:5 (protein)
chain: MCRGDATRTPKLVKHTLLTRFKDEITREQIDNYINDYTNLLDLIPSMKSFNWGTDLGMESAELNRGYTHAFESTFESKSGLQEYLDSAALAAFAEGFLPTLSQRLVIDYFLY
modifications: Sp1 mutant variant Cys, Arg, Gly and Asp inserted into position 2
B3: RGDC2: SP1 fusion protein with N-terminal peptide RGDC, SEQ ID NO:6 (protein)
chain: B2 chain with C2R, R3G, G4D, D5C
modifications: Sp1 mutant variant Arg, Gly, Asp and Cys inserted into position 2

Experiments:
[1] = test system: Human colon adenocarcinoma (HT-29) cells; test: In-vitro cytotoxicity in HT-29 cells; type: cell-based
Source text: FIGS. 24a and 24b are graphs illustrating the in-vitro cytotoxic effects of SP1-DOX complex. FIG. 24a—HT-29 cells cultured in 96 well microtiter plates were exposed to uncomplexed DOX (closed oval, magenta) or SP1-DOX complex (closed triangle, blue) prepared as described in FIGS. 9-15, at the indicated concentrations. FIG. 24b—HT-29 cells were exposed to uncomplexed SP1 (without DOX) (closed diamond, blue) or SP1-DOX complex (closed triangle, yellow) at indicated concentrations. Proportion of living cells was determined by MTT assay, and the IC50 was calculated.
HT-29 cells were prepared as in FIG. 24 above.
Human colon adenocarcinoma (HT-29) cells. The cells were grown in 50-ml flasks containing DMEM medium (Biological Industries, Bet Haemek), supplemented with 10% fetal calf serum, 1% glutamine and 1% Antibiotic-Antimicotic solution (Biolab, Israel). The cells were trypsinizated, and 2 ml medium containing 5×10^4 cells were plated in each well of a 6-wells plate. SP1, drugs or SP1-complexed with drugs was added at the indicated concentrations. The cells were incubated at 37° C. in a humidified atmosphere containing 5% CO2.After 48 hours the medium in the presence or absence of drugs was replaced in each well respectively, to maintain a constant supply of ingredients and drugs. After four days the medium was removed and the number of viable cells in the cultures was determined by spectroscopy.
The human colorectal adenocarcinoma cell line, HT-29, was used to evaluate the biological activity of the SP1-DOX complex, compared to that of the free drug and un-complexed SP1 protein. […] Thus, the SP1-DOX complex is at least as biologically active as free DOX.

[2] = Resistance of SP1 complex to organic solvents; type: physicochemical
Protocol: 150 ul of 1 mg/ml samples in 10 mM sodium phosphate pH 7 were lyophilized overnight and resuspended in 150 μl organic solvents for 10 minutes. Following a 30 minutes speed vac the samples were resuspended in 150 μl water and analyzed by SDS-PAGE.
In order to further test the stability of SP1 and SP1 oligomeric complexes, wild type SP1 and the SP1 variant Cys2 SP1 were dissolved in buffer, exposed to organic solvents methanol and hexane, and analyzed by SDS-PAGE (FIG. 18).
In order to determine the stability of the SP1 complex in organic solvents, SP1 and Cys2 SP1-variant (SEQ ID NO: 3) were dissolved in organic solvents, dried, reconstituted with aqueous solvent, and separated on SDS-PAGE.

[3] = Oligomeric complex formation by SDS PAGE (unboiled samples); conditions: boiling and protease stability
Protocol: SP1 (20 μg) was prepared in SDS sample buffer at different SP1-monomer: SDS molar ratios and boiled (or not) (5 mM) prior to SDS-PAGE analysis. Heat stability of SP1 oligomer (10 μg) was tested in the same buffer at SP1-monomer: SDS=1:1733 and heated for 1 to 10 mM at different temperatures.
Purified 6HSP1 and ΔNSP1 were first denatured to the monomeric forms by boiling the proteins in SDS sample buffer. The denatured proteins were then separated in preparative SDS-PAGE, and visualized by Coomassie blue staining. The monomeric forms of two recombinant protein bands were excised. Gel slices that carried monomeric form of 6HSP1 (SEQ ID NO:7) and ΔNSP1 (SEQ ID NO:2) were mixed at 1:1 ratio (v/v). In order to enhance the surface/volume ratio, the gel slices were pulverized using a pestle and mortar in the presence of liquid nitrogen. […] The hetero-oligomeric complex was isolated by subjecting the eluated protein to Ni-NTA Agarose beads and the bound proteins were eluted by 400 mM imidazole using a standard procedure (Sigma protocol for P 6611). […] The composition of hetero-oligomeric SP1 was determined by SDS-PAGE and visualized by silver staining.

[4] = Doxorubicin complex formation and release (ultrafiltration, HPLC, SDS PAGE fluorescence); type: binding; conditions: for DOX complex formation: reducing conditions (DTT or GSH)
Protocol: Pure wild type SP1 or Cys2 SP1 mutant (1.5 mg/ml in 20 mM Sodium Phosphate buffered, pH=6.8) were incubated overnight at room temp, with DOX 1 mg/ml in the presence of DTT (10 mM), with gentle rolling. Binding reaction was stopped by adding hydrogen peroxide (0.01%), followed by ultra filtration (using 30 kD cutoff filter) and extensive wash until follow-through become colorless. Optical density was measured at both 278 and 477 nm using nanodrop spectrophotometer. Note the dramatic effect of the reducing agent on drug binding by the Cys2 SP1, compared to the absence of effect on the wild type SP1.
FIG. 13 is a histogram illustrating the redox-dependent release of Doxorubicin by Cys2 SP1. Doxorubicin (DOX) was complexed within Cys2 SP1 as described in FIGS. 9-12 above. Release of the drug in the presence of 0, 2 and 20 mM GSH was measured by ultrafiltration and size exclusion HPLC analysis (detection at 228 and 475 nm);
FIG. 14 is a histogram illustrating the effect of oxidation on DOX complex formation by Cys2 SP1. Doxorubicin (DOX) was reacted with Cys2 SP1 and wild type SP1 as described in FIGS. 9-13 above. Oxidized protein indicates exposure to excess of H2O2 prior to treatment with GSH. DOX complex formation was measured by ultrafiltration and size exclusion HPLC analysis (detection at 228 and 475 nm). […] 1=the retentate; 2=the flow through; and 3=a DOX standard 20 μg/ml.
FIG. 17 is a photograph of a fluorescent PAGE analysis illustrating effective complex formation with DOX by Cys2 and SP1 fusion proteins. Recombinant wild type (lanes 1 and 2), Cys2 (lanes 3 and 4), and SP1 fusion proteins having additional N-terminal tumor specific peptide RGD (CRGD, SEQ ID NO:151; fusion protein is SEQ ID NO: 5)(lanes 5 and 6), or RGD in reverse order (RGDC, SEQ ID NO: 152; fusion protein is SEQ ID NO: 6)(lanes 7 and 8) were reacted with DOX to form complex as described in FIGS. 9-14 above, and then separated on SDS-PAGE with (lanes 2, 4, 6 and 8) or without (lanes 1, 3, 5 and 7) denaturation by boiling in LSB.
(§1) Ultrafiltration was used for the detection of complex formation with the water soluble ligands FA and DOX which have a distinctive absorption properties and can be determined by spectroscopic measurements. […] Several additional washing cycles remove all remaining free FA and DOX, and the ligand-SP1 complex remains in the retained fraction.
(§2) Size exclusion chromatography is a common method for separation of molecules of different sizes under mild conditions and was employed to test FA and DOX complex formation under mild conditions. SP1 is eluted from the column after 7 min and is detected at 278 nm only, and free FA is eluted from the column (TSK G3000 SWXL, Tosohaas) after 16 min and is detected at 490 nm. The SP1-FA and SP1-DOX complexes also eluted at the same time but is detected also at 490 and 475 nm, respectively. DOX/SP1 ratio is determine from the standard curve obtained in solution.
Reverse phase HPLC (RP-HPLC) analysis separates between free DOX, PXT, and SP1. Both compounds bind to the resin (C-18) and are eluted at different acetonitrile concentrations, and detected at both 278 and 225 nm (SP1), 225 nm (PTX) and 477 nm (DOX).
Pyrogen free Cys2 SP1 variant (SEQ ID NO:3) in 20 mM (Na Phosphate buffer pH-6.7) final 2 mg/ml was diluted with DOX solution (Teva, Israel) 1:2 dilution final 1 mg/ml. Where indicated, GSH was added, and the solution is mixed overnight. Where indicated (oxidized), H2O2 is added to 0.1%, buffer added to 3× volume, and the solution is sonicated (3×22 sec. 1:1 pulse/pause at 3% amplitude 0.5 min. pause, using a Vibra-Cell 750 W sonicator).

[5] = Heat stability (no precipitation after heat treatment); conditions: 10 min at 100° C. or 30 min at 85° C.
[6] = Fluorescein-amine complex formation (ultrafiltration, size exclusion HPLC); type: binding
Protocol: FIG. 9 is a histogram showing redox-dependent complex formation with small molecules by Cys2 SP1. Pure Cys 2 mutant (1.5 mg/ml in Phosphate buffered saline, pH=7.5 (PBS)) was incubated for 2 hours at room temp, with I mM fluorescein-amine with or without glutathione (reduced form, GSH 3 mM). Binding reaction was stopped by adding hydrogen peroxide (0.01%), followed by ultra filtration (using a 30 kD cutoff filter) and extensive wash. Absorption analysis was conducted at both 278 and 492 nm, and the results expressed as the 492/278 ratio. Note that in the absence of the reducing agent (GSH), retention of the flourescein-amine is negligible;
FIG. 10 is a graphic representation of the redox-dependent fluorescein amine complex formation by Cys2 SP1, compared to the recombinant SP1. Fluorescein-amine was incubated with pure SP1 or Cys2 SP1 mutant (1.5 mg/ml in PBS pH=7.5) in the absence or presence of DTT (10 mM). Binding reaction was stopped by adding hydrogen peroxide (0.01%), followed by ultra filtration (using 30 kD cutoff filter) and extensive wash. Samples were analyzed by Gel filtration HPLC, and detected at both 228 and 490 nm. Calculated data is shown on the right.
FIG. 11 is a histogram illustrating the concentration dependent complex formation with fluorescein-amine by Cys2 SP1. Huorescien-amine (10, 33, 100 or 333 mM) was incubated with Cys 2 SP1 or pure wild type SP1 in the presence of 10 mM DTT, and the bound and unbound fractions analyzed by ultra-filtration and HPLC as in FIG. 10.
as §1, §2
5. Can complexed ligand be stabilized by association with the Cys2 SP1? Fluoresceine amine (FA): FA absorption peak is at 490 nm and at much lower extend at 278 nm (for a given FA concentration OD278/OD490=0.19)(see FIG. 31), when SP1 absorption peak is at 278 nm (see FIG. 30), and it is not detected at 490 nm. […] FA complexing with the Cys2 Sp1 variant was determined following incubation of FA and Cys2 SP1 variant in the absence or presence of GSH, followed by protein oxidation, ultra filtration (30 kDa cutoff) and exhaustive wash of the retained fraction with PBS with or without GSH. Absorption analysis at both 278 and 490 nm.

Molecule | IC50 ([1]; Homo sapiens, HT-29 cells, dose inhibiting 50% of cell growth, read-out: IC50) | biological activity after storage in aqueous solution ([1]; at least 3 weeks storage in aqueous solution) | protease resistance after hexane treatment ([2]; hexane-treated, data not shown) | resistance of oligomeric complex to organic solvents ([2]; methanol, hexane, SDS-PAGE) | oligomeric complex formation, stability and resistance [3] | DOX complexing after oxidation prior to DOX addition ([4]; oxidized protein (H2O2)) | DOX complex formation [4] | DOX complex formation ([4]; listed as Cys2 SP1 variant) | Heat stability [5] | FA complexing at low ligand concentration ([6]; 10 μM FA, 10 mM DTT) | efficiency of FA complexing in the presence of reducing agents ([6]; 10 mM DTT) | retention of the flourescein-amine ([6]; absence of the reducing agent (GSH), 492/278 ratio) | efficiency of FA complexing relative to wild type SP1 ([6]; ≧100 μM FA) | oligomeric complex formation, stability and resistance ([3]; listed as CRGD SP1) | oligomeric complex formation, stability and resistance ([3]; listed as RGDC SP1)
CC(=O)O[C@H]1C(=O)[C@@]2(C)[C@H]([C@H](OC(=O)c3ccccc3)[C@]3(O)C[C@H](OC(=O)[C@H](O)[C@@H](NC(=O)c4ccccc4)c4ccccc4)C(C)=C1C3(C)C)[C@]1(OC(C)=O)CO[C@@H]1C[C@@H]2O [PTX, paclitaxel] | ~0.01 µg/mL (≈ 0.0117 µM) | becomes inactive | – | – | – | – | – | – | – | – | – | – | – | – | –
B1 | – | – | resistance to protease treatment | Predominantly high molecular weight oligomer complex form; also recorded: even more resistant than the wild type | formed homo- and hetero-oligomeric complexes | eliminates DOX complexing | effective binding | much greater extent | + | efficient complexing | greater than 3 fold | negligible | greater than 3 fold | – | –
B2 | – | – | – | – | formed a boiling stable and protease resistant dodecamer | – | effective binding | – | + | – | – | – | – | formed homo- and hetero-oligomeric complexes | –
B3 | – | – | – | – | formed a boiling stable and protease resistant dodecamer | – | effective binding | – | + | – | – | – | – | – | formed homo- and hetero-oligomeric complexes
